B1: SMTNL2 (parent)
chain: QKNFELAFTMAENLANCERLIEVE
B2: ZNF263 (parent)
chain: FGGNPRFLSLHRAHLGEEAHKCLE

Variants of: B1
Assay: protein stability index of a GFP-peptide fusion (GPS, HEK-293T) (PSI 1-6); higher = more stable
Details: c terminus: a fixed tail appended
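Note: lentivirally expressed fusions sorted by FACS into six bins by GFP to DsRed ratio, PSI derived from sequencing read proportions per bin multiplied by bin number.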

| Variant | protein stability index |
| --- | --- |
| K2E | 1.84 |
| K2G | 1.74 |
| K2M | 1.7 |
| K2C | 1.77 |
| K2P | 2.24 |
| K2R | 2.34 |
| K2H | 1.13 |
| K2L | 1.78 |
| K2I | 2.71 |
| K2D | 2.51 |
| Q1G | 1.2 |
| Q1K | 2.58 |
| Q1T | 1.26 |
| Q1V | 1.54 |
| Q1Y | 1.97 |
| Q1N | 1.67 |
| Q1F | 3.06 |
| Q1P | 2.56 |
| Q1L | 1.86 |
| Q1D | 1.28 |

Variants of: B2
Assay: as above
Details: c terminus: a fixed tail appended

| Variant | protein stability index |
| --- | --- |
| H14C | 1.95 |
| H14V | 1.96 |
| H14R | 1.24 |
| H14T | 3.21 |
| H14A | 1.74 |
| H14D | 2.56 |
| H14P | 1.59 |
| H14Q | 2.6 |
| H14L | 1.46 |
| H14N | 1.49 |
| H14M | 1.69 |
| H14E | 1.15 |
| H14S | 1.35 |
| H14K | 1.81 |
| H14W | 2.42 |
| H14G | 1.95 |
| H14I | 3.64 |
| H14F | 2.55 |
| H14Y | 1.86 |
| H11C | 2.23 |
| H11Q | 1.6 |
| H11V | 2.55 |
| H11P | 1.75 |
| H11E | 2.01 |
| H11Y | 3.3 |

| Variant | protein stability index |
| --- | --- |
| H11D | 2.22 |
| H11R | 1.91 |
| H11I | 1.87 |
| H11K | 1.91 |
| H11F | 2.41 |
| H11G | 2.71 |
| H11S | 3.19 |
| H11T | 3.17 |
| H11A | 1.41 |
| H11N | 1.8 |
| K21W | 1.6 |
| K21C | 1.98 |
| K21N | 2 |
| K21P | 2.13 |
| K21V | 1.38 |
| K21F | 2.17 |
| K21D | 1.86 |
| K21Q | 2 |
| K21H | 1.89 |
| K21I | 2.14 |
| K21Y | 1.71 |
| K21T | 2.04 |
| K21L | 2.14 |
| K21M | 2.76 |
| K21R | 1.05 |

| Variant | protein stability index |
| --- | --- |
| K21E | 1.76 |
| K21S | 1.85 |
| K21A | 1.77 |
| K21G | 1.9 |
| G16R | 1.64 |
| G16A | 2.1 |
| G16C | 1.83 |
| G16K | 1.62 |
| G16E | 2.51 |
| G16P | 2.12 |
| G16S | 2.06 |
| G16M | 2.19 |
| G16F | 1.9 |
| G16I | 2.06 |
| G16Q | 2.76 |
| G16D | 1.63 |
| G16H | 1.7 |
| G16T | 1.94 |
| G16V | 2.42 |
| G16W | 1.87 |
| G16L | 2.55 |
| G16N | 1.92 |
| L8T | 2.77 |
| L8I | 1.41 |
| L8M | 2.25 |

| Variant | protein stability index |
| --- | --- |
| L8Y | 3.2 |
| L8S | 2.03 |
| L8D | 3.1 |
| L8F | 2.16 |
| L8V | 2.5 |
| L8K | 2.53 |
| L8C | 1.4 |
| L8R | 2.27 |
| L8W | 3.8 |
| L8H | 1.86 |
| L8N | 2.25 |
| L8G | 2.1 |
| L8Q | 1.66 |
| L8P | 2.01 |
| L8E | 2.54 |
| E24S | 2.75 |
| E24R | 1.75 |
| E24M | 2.31 |
| E24L | 2.52 |
| E24D | 1.71 |
| E24F | 1.7 |
| E24N | 1.48 |
| E24A | 1.77 |
| E24W | 3.02 |
| E24K | 1.76 |

| Variant | protein stability index |
| --- | --- |
| E24H | 1.69 |
| E24V | 2.88 |
| E24C | 2.15 |
| E24P | 1.63 |
| E24Q | 2.37 |
| E24I | 1.51 |
| E24G | 1.72 |
| E24Y | 1.51 |
| E24T | 1.56 |
| R12D | 1.85 |
| R12P | 1.46 |
| R12E | 1.76 |
| R12Q | 2.22 |
| R12V | 3.14 |
| R12W | 1.58 |
| R12A | 2.08 |
| R12M | 2.36 |
| R12I | 1.84 |
| R12L | 1.56 |
| R12C | 1.87 |
| R12S | 2.17 |
| R12F | 2.35 |
| R12H | 1.71 |
| R12G | 1.81 |
| R12N | 2.49 |

| Variant | protein stability index |
| --- | --- |
| R12T | 1.95 |
| R12Y | 1.24 |
| R12K | 1.61 |
| A19Y | 1.57 |
| A19T | 1.95 |
| A19C | 2.48 |
| A19G | 1.58 |
| A19P | 2.08 |
| A19S | 2.48 |
| A19L | 1.39 |
| A19F | 1.44 |
| A19R | 1.59 |
| A19Q | 1.9 |
| A19V | 1.91 |
| A19W | 2.23 |
| A19I | 2.36 |
| A19N | 1.66 |
| A19H | 1.75 |
| A19E | 2.14 |
| A19M | 2.18 |
| A19K | 1.49 |
| A19D | 1.99 |
| E17T | 1.73 |
| E17I | 1.19 |
| E17Q | 1.85 |

| Variant | protein stability index |
| --- | --- |
| E17L | 1.25 |
| E17D | 1.36 |
| E17H | 1.82 |
| E17C | 2.37 |
| E17Y | 1.56 |
| E17K | 2.5 |
| E17F | 2.94 |
| E17M | 2.82 |
| E17W | 2.12 |
| E17R | 1.78 |
| E17N | 1.97 |
| E17P | 1.41 |
| E17S | 2.07 |
| E17G | 1.3 |
| E17A | 1.42 |
| S9A | 1.52 |
| S9N | 1.55 |
| S9I | 2.59 |
| S9H | 1.8 |
| S9P | 2.1 |
| S9Y | 3.04 |
| S9T | 1.8 |
| S9K | 1.64 |
| S9E | 1.97 |
| S9Q | 2.9 |

| Variant | protein stability index |
| --- | --- |
| S9M | 1.15 |
| S9V | 1.71 |
| S9C | 2.16 |
| S9R | 1.87 |
| S9F | 2.14 |
| S9D | 1.34 |
| S9L | 2.25 |
| A13S | 1.71 |
| A13L | 1.43 |
| A13G | 1.99 |
| A13M | 2.21 |
| A13K | 1.94 |
| A13P | 1.56 |
| A13Q | 1.48 |
| A13Y | 1.72 |
| A13N | 2.04 |
| A13E | 1.66 |
| A13T | 1.98 |
| A13F | 2.52 |
| A13V | 1.79 |
| A13D | 1.81 |
| A13I | 1.35 |
| A13H | 2.26 |
| A13C | 1.71 |
| A13R | 2.08 |

| Variant | protein stability index |
| --- | --- |
| A13W | 1.81 |
| H20V | 1.43 |
| H20G | 1.53 |
| H20K | 2.56 |
| H20W | 2.24 |
| H20P | 1.83 |
| H20Y | 2.18 |
| H20D | 2.28 |
| H20Q | 1.04 |
| H20N | 1.49 |
| H20C | 2.94 |
| H20F | 1.98 |
| H20M | 2.13 |
| H20I | 1.4 |
| H20S | 2.69 |
| H20R | 1.66 |
| H20E | 2.13 |
| H20T | 1.55 |
| H20A | 1.24 |
| H20L | 1.61 |
| L23D | 1.63 |
| L23M | 1.96 |
| L23Y | 1.75 |
| L23G | 1.76 |
| L23A | 2.65 |

| Variant | protein stability index |
| --- | --- |
| L23S | 1.63 |
| L23E | 1.97 |
| L23N | 2.21 |
| L23H | 1.97 |
| L23F | 1.8 |
| L23P | 2.02 |
| L23C | 1.97 |
| L23V | 1.83 |
| L23Q | 1.92 |
| L23W | 1.75 |
| L23I | 2.02 |
| L23R | 1.7 |
| L23T | 2.51 |
| L23K | 1.91 |
| L15M | 1.62 |
| L15R | 2.05 |
| L15T | 1.55 |
| L15Q | 1.86 |
| L15K | 2.06 |
| L15D | 2.46 |
| L15S | 1.73 |
| L15W | 2.28 |
| L15A | 1.83 |
| L15Y | 2.58 |
| L15H | 2.33 |

| Variant | protein stability index |
| --- | --- |
| L15G | 1.89 |
| L15P | 1.94 |
| L15I | 1.54 |
| L15N | 1.7 |
| L15E | 1.7 |
| L15V | 1.34 |
| L15C | 3.76 |
| L15F | 1.27 |
| L10P | 2.01 |
| L10Q | 2 |
| L10Y | 2.33 |
| L10I | 2.06 |
| L10G | 1.34 |
| L10F | 1.8 |
| L10N | 2.22 |
| L10T | 1.99 |
| L10S | 1.62 |
| L10A | 1.74 |
| L10H | 2.17 |
| L10M | 2.02 |
| L10W | 3.91 |
| L10D | 2.47 |
| L10K | 2.24 |
| L10V | 2.66 |
| L10E | 2.64 |

| Variant | protein stability index |
| --- | --- |
| L10R | 2.69 |
| E18N | 1.07 |
| E18Q | 1.87 |
| E18V | 2.43 |
| E18C | 2.12 |
| E18Y | 1.88 |
| E18D | 1.87 |
| E18I | 2.34 |
| E18A | 1.77 |
| E18G | 1.61 |
| E18S | 2.34 |
| E18W | 2.03 |
| E18T | 1.46 |
| E18F | 1.85 |
| E18P | 2.05 |
| E18L | 2.33 |
| E18H | 1.47 |
| E18R | 1.62 |
| E18M | 1.75 |
| E18K | 1.39 |
| C22F | 1.74 |
| C22E | 2.19 |
| C22L | 1.38 |
| C22S | 3.62 |
| C22K | 2 |

| Variant | protein stability index |
| --- | --- |
| C22V | 2.51 |
| C22D | 2.15 |
| C22A | 1.78 |
| C22I | 1.59 |
| C22H | 2.44 |
| C22W | 1.46 |
| C22G | 1.62 |
| C22R | 1.75 |
| C22P | 2.44 |
| C22T | 1.47 |
| C22N | 2.17 |
| C22Y | 1.88 |
| C22M | 1.74 |
| C22Q | 2.66 |

Source: the supplement of paper PMC10567573
